Data as given in patent CN116410306A (ATTOGEN BIOMEDICAL SUZHOU INC LTD, dated 2023).

How the values were obtained:
[1] = biological target: T1, FLAG-HPV6 E6 (HPV6, UniProt P06462 1-150); assay: sandwich ELISA: flag antibody capture of 293T lysate, A4F9 supernatant 1:1
T1 construct: Flag-E6 fusion protein from transfected 293T cell lysate, captured on a coated flag antibody
T1 chain: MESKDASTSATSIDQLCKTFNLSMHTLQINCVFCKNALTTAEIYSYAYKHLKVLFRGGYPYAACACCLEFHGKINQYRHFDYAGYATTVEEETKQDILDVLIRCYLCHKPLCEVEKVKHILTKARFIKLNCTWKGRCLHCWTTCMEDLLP

[2] = biological target: T2, FLAG-HPV11 E6 (HPV11, UniProt P04019 1-150); assay: as above
T2 construct: Flag-E6 fusion protein from transfected 293T cell lysate, captured on a coated flag antibody
T2 sequence: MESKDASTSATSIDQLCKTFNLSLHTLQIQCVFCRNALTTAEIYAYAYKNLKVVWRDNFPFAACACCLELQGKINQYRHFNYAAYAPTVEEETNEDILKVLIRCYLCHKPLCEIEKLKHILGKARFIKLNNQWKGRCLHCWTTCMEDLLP

[3] = biological target: T3, FLAG-HPV68 E6 (HPV68); assay: sandwich ELISA; (HPV OD450 - 293T negative control)/HPV16 OD450, HPV16 E6 = 100%
T3 construct: Flag-E6 fusion protein from transfected 293T cell lysate, captured on a coated flag antibody

[4] = biological target: T1, FLAG-HPV6 E6; assay: as above
[5] = biological target: T2, FLAG-HPV11 E6; assay: as above
[6] = biological target: T4, HPV18 E6蛋白 (宫颈癌细胞株Hela细胞内源表达) (HPV18, UniProt P06463 1-158, limits assumed); assay: immunocytochemistry on fixed HeLa cells mixed with a negative clinical pool, DAB
T4 construct: whole, on cells; Intracellular protein in fixed cells, stained by immunocytochemistry; HeLa cells were mixed into a pool of negative clinical samples

[7] = biological target: T5, FLAG-HPV18 E6 (HPV18, UniProt P06463 1-158); assay: sandwich ELISA: flag antibody capture of 293T lysate (fresh or liquid-based fixed)
T5 construct: Flag-E6 fusion protein from transfected 293T cell lysate, captured on a coated flag antibody; also called 可溶性蛋白HPV18 E6

[8] = biological target: T6, Flag-HPV16 E6 (HPV16, UniProt P03126 1-158); assay: as above
T6 chain: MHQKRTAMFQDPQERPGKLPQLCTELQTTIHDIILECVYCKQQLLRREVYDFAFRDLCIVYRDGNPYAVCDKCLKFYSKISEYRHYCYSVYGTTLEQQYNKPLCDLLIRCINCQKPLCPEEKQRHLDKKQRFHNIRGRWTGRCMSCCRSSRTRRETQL

[9] = biological target: T3, FLAG-HPV68 E6; assay: sandwich ELISA: flag antibody capture of Flag-E6 from 293T lysate, A4F9 supernatant 1:1
[10] = biological target: T1, FLAG-HPV6 E6; assay: as above
[11] = biological target: T2, FLAG-HPV11 E6; assay: as above
[12] = biological target: T7, HPV16 E6蛋白 (宫颈癌细胞株CaSki细胞内源表达) (HPV16, UniProt P03126 1-158); assay: immunocytochemistry on fixed CaSki cells, DAB
T7 construct: whole, on cells; Intracellular protein in fixed cells (95% ethanol, EDTA heat retrieval), stained by immunocytochemistry; also called CaSki阳性标准对照细胞

T5 sequence (P06463 whole entry, the tested form may be a part): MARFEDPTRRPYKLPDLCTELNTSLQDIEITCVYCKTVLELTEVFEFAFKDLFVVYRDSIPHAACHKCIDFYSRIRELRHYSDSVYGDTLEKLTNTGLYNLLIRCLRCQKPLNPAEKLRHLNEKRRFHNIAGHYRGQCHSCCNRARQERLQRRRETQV
T4 sequence (P06463 whole entry): as the sequence (P06463 whole entry, the tested form may be a part) above

B1: 抗HPV E6兔源单克隆抗体 A4F9 (antibody, V domains shown)
VH: QEQLVESGGGLVQPEGSLTLTCTASGFSFSSSYWICWVRQAPGKGLEWIACIYSGDGDAYYASWAKGRFTISKTSSTTVTLQMTSLTAADTAAYFCARDRVYDSSSGHGLWGPGTLVTVSS
VL: DIVMTQTPFSVSAAAGGTVTINCQASENIYSNLAWYQQKPGQRPKLLIYGTSDLPSGVPSRFSGSGYGTEFTLTISDLECADAATYYCQSYYYRSSSAYGWDFGGGTEVVVK
notes: Rabbit monoclonal from single B cell cloning, tested as clone supernatant (rabbit IgG, detected with goat anti-rabbit-HRP); also called 克隆上清A4F9; A4F9克隆
binding result [1]: no binding | binding result [2]: no binding | %交叉活性 [3]: 6.3% | %交叉活性 [4]: -6.3% | %交叉活性 [5]: -5.2% | binding result [6]: binds | binding result [7]: binds | binding result [8]: binds | OD450 [9]: 0.5 | OD450 [10]: 0.1 | OD450 [11]: 0.1 | binding result [12]: binds
